Laboratory results taken from patent publication US8889130B2, “Treatment of osteoarthritis and pain” (Abbvie Inc., priority 2011, dated 2014).

Tests used:
hIL-1α [1] = target: T1, hIL-1α (Homo sapiens, UniProt P01583); assay: Surface plasmon resonance (Biacore) binding kinetics and affinity to hIL-1α; conditions: antigen hIL-1α; for Kd: KD=koff/kon
T1 sequence (P01583 113-271): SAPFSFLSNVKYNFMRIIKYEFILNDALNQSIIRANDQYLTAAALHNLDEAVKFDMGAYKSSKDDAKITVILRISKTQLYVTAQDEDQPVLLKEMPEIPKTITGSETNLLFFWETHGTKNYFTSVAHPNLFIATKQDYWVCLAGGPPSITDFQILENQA
Description: (§1) The kinetics of DVD-Ig molecules binding to rhIL1-α and rhIL1-β was determined by surface plasmon resonance-based measurements with a Biacore 3000 instrument (Biacore AB, Uppsala, Sweden) using HBS-EP (10 mM HEPES, pH 7.4, 150 mM NaCl, 3 mM EDTA, and 0.005% surfactant P20) at 25° C. All chemicals were obtained from Biacore AB (Uppsala, Sweden) or otherwise from a different source as described herein. Approximately, 5000 RU of goat anti-human IgG Fcγ fragment specific polyclonal antibody (Pierce Biotechnology Inc, Rockford, Ill.) diluted in 10 mM sodium acetate (pH 4.5) was directly immobilized across a CM5 research grade biosensor chip using a standard amine coupling kit according to manufacturer's instructions and procedures at […]. Unreacted moieties on the biosensor surface were blocked with ethanolamine. Modified carboxymethyl dextran surface in flowcell 2 and 4 was used as a reaction surface. Unmodified carboxymethyl dextran without goat anti-human IgG in flow cell 1 and 3 was used as the reference surface. For kinetic analysis, rate equations derived from the 1:1 Langmuir binding model were fitted simultaneously to association and dissociation phases of all ten injections (using global fit analysis) using the Bioevaluation 4.0.1 software. Purified DVD-Ig samples were diluted in HEPES-buffered saline for capture across goat anti-human IgG Fc specific reaction surfaces and injected over reaction matrices at a flow rate of […]. The association and dissociation rate constants, kon (M-1s-1) and koff (s-1) were determined under a continuous flow rate of […]. Rate constants were derived by making kinetic binding measurements at ten different antigen concentrations ranging from 1.25 to 1000 nM. The equilibrium dissociation constant (M) of the reaction between DVD-Ig molecule and rhIL1α/β was then calculated from the kinetic rate constants by the following formula: KD=koff/kon. Aliquots of rhIL1α/β samples were also simultaneously injected over a blank reference and reaction CM surface to record and subtract any nonspecific binding background to eliminate the majority of the refractive index change and injection noise. Surfaces were regenerated with two subsequent […] injections of 10 mM Glycine (pH 1.5) at a flow rate of […]. The anti-Fc antibody immobilized surfaces were completely regenerated and retained their full capture capacity over twelve cycles. The apparent stoichiometry of the captured DVD-Ig-rhIL1α/β complex was calculated under saturating binding conditions (steady-state equilibrium) using the following formula: […]

both IL-1α and IL-1β = assay: MRC-5 assay in the presence of both IL-1α and IL-1β (IL-8 synthesis); format: cell-based, human; conditions: equal amounts of hIL-1α and hIL-1β in the same culture; read-out: dual-inhibition activity (IL-8 synthesis by MRC-5 cells)
Description: The biological activity of DVD-Ig was measured using MRC-5 bioassay. The MRC-5 cell line is a human lung fibroblast cell line that produces IL-8 in response to human IL-1α and IL-1β in a dose-dependent manner. MRC-5 cells were obtained from ATCC and cultured in 10% FBS complete MEM at 37° C. in a 5% CO2 incubator. To determine neutralizing activity of the DVD-Ig against human IL-1α or IL-1β, 50 μl of antibody (1×10^−7 to 1×10^−12 M) in MEM/10% FBS was added to a 96 well plate and pre-incubated with 50 μl of hIL-1α or hIL-1β (200 pg/ml) for 1 hour at 37° C., 5% CO2. MRC-5 cells at a concentration of 1×10^5/ml were then added (100 μl) to all wells, and the plates were incubated overnight at 37° C. in a 5% CO2 incubator. The supernatants were harvested and human IL-8 production measured by standard ELISA (R&D Systems, Minneapolis, Minn.). Neutralizing activity of the DVD-Ig binding protein was determined by its ability to inhibit IL-8 production.
To determine if DVD-Ig binding protein was able to inhibit IL-8 production in the presence of both IL-1α and IL-1β, equal amounts of hIL-1α and hIL-1β were added in the same culture system of MRC-5 assay. […]

hIL-1α [2] = target: T1, hIL-1α; assay: Tetravalent dual-specific antigen binding by Biacore (sequential antigen injection), hIL-1α; conditions: for Response Unit, 1st antigen hIL-1α: hIL-1α injected as 1st antigen on captured DVD-Ig; for Response Unit, 2nd antigen hIL-1α: hIL-1α injected as 2nd antigen after hIL-1β
Description: as §1
In addition, tetravalent dual-specific antigen binding of DVD-Ig binding protein was also analyzed by Biacore (Table 14). DVD-Ig binding protein was first captured via a goat anti-human Fc antibody on the Biacore sensor chip, and the first antigen was injected and a binding signal observed. As the DVD-Ig binding protein was saturated by the first antigen, the second antigen was then injected and the second signal observed. This was done either by first injecting IL-1β then IL-1α or by first injecting IL-1α followed by IL-1β for DVD2-Ig binding protein. In either sequence, a dual-binding activity was detected. Similar results were obtained for DVD1-Ig binding protein. Thus, each DVD-Ig binding protein was able to bind both antigens simultaneously as a dual-specific tetravalent molecule. […] Upon the injection of the second antigen, while DVD-Ig binding protein was already occupied by the first antigen, the stoichiometry of both DVD-Igs binding protein to the second antigen (i.e., hIL-1α or hIL-1β was between 1.0 and 1.3. Thus, DVD-Ig binding protein was able to bind two IL-1α and two IL-β molecules. DVD-Ig binding protein was first captured via a goat anti-human Fc antibody on the Biacore sensor chip, and the first antigen was injected and a binding signal observed, followed by the injection of the second antigen.

[3] = hIL-1α injected as 2nd antigen, DVD-Ig already saturated with hIL-1β

B1: DVD1-Ig: DVD-Ig binding hIL-1α and hIL-1β; VH/VL of 13F5.G5 fused directly to N-terminus of 3D12.E3 VH/VL, no linker (antibody)
VH: MQLSGLTSEDSAMYFCVRFPTGNDYYAMDYWGQGTSVTVSSQIQLVQSGPELKKPGETVKISCKASGYTFRNYGMNWVKQAPGKDLKRMAWINTYTGESTYADDFKGRFAFSLETSASTAYLQINNLKNEDTATYFCARGIYYYGSSYAMDYWGQGTSVTVSS
VL: PVEADDAATYYCQQNNEDPFTFGSGTKLEIKRNIQMTQTTSSLSASLGDRVTISCRASQDISNCLNWYQQKPDGTVKLLIYYTSRLHSGVPSRFSGSGSGTDYSLTISNLEQEDIATYFCQQGKTLPYAFGGGTKLEINRR
koff (hIL-1α [1]): 0.000105 s⁻¹ | kon (hIL-1α [1]): 37000 M⁻¹ s⁻¹ | Kd (hIL-1α [1]): 2.83 nM | Stoichiometry (hIL-1α [1]; saturating binding conditions): 1.8 | IC50 (both IL-1α and IL-1β): 2.2 nM | Stoichiometry hIL-1α:DVD-Ig (hIL-1α [2]; hIL-1α injected as 1st antigen): 2.3 | Response Unit, 1st antigen hIL-1α (hIL-1α [2]): 190 Response Unit | Response Unit, 2nd antigen hIL-1α (hIL-1α [2]): hIL-1α: 107 Response Unit | Stoichiometry hIL-1α:DVD-Ig (hIL-1α [2]; [3]): 1.1

B2: DVD2-Ig: DVD-Ig as DVD1-Ig but with linkers ADAAP (light chain) and AKTTPP (heavy chain) (antibody)
VH: MQLSGLTSEDSAMYFCVRFPTGNDYYAMDYWGQGTSVTVSSAKTTPPQIQLVQSGPELKKPGETVKISCKASGYTFRNYGMNWVKQAPGKDLKRMAWINTYTGESTYADDFKGRFAFSLETSASTAYLQINNLKNEDTATYFCARGIYYYGSSYAMDYWGQGTSVTVSS
VL: PVEADDAATYYCQQNNEDPFTFGSGTKLEIKRADAAPNIQMTQTTSSLSASLGDRVTISCRASQDISNCLNWYQQKPDGTVKLLIYYTSRLHSGVPSRFSGSGSGTDYSLTISNLEQEDIATYFCQQGKTLPYAFGGGTKLEINR
koff (hIL-1α [1]): 0.000252 s⁻¹ | kon (hIL-1α [1]): 73500 M⁻¹ s⁻¹ | Kd (hIL-1α [1]): 3.42 nM | IC50 (both IL-1α and IL-1β): 1.2 nM | Stoichiometry hIL-1α:DVD-Ig (hIL-1α [2]; hIL-1α injected as 1st antigen): 1.8 | Response Unit, 1st antigen hIL-1α (hIL-1α [2]): 209 Response Unit | Response Unit, 2nd antigen hIL-1α (hIL-1α [2]): hIL-1α: 131 Response Unit | Stoichiometry hIL-1α:DVD-Ig (hIL-1α [2]; [3]): 1.2
